Kd data for one molecule are collected here from patent US20220364094, “CD44 APTAMER” (The Chiness University Of Hong Kong, published 2022).

In this data set the target is CD44 hyaluronic acid binding domain (HABD) (UniProt P16070 P16070:21-178). As to the kind of experiment: ELONA; hardly associated with HABD; epitope expected in region encoded by exons 15-16. The conditions noted are these: tags: His-tag, commercial; captured via His-tag antibody; label: biotin (loop of second hairpin, 44G-48A region); two hairpins and one stem (predicted). The protocol:
His-tag recombinant CD44 HABD protein was immobilized on ELISA plate using His-tag antibody. The captured CD44 proteins were incubated with various concentrations of biotin-labeled CD44-Apt1 (5 nM-10 μM). Bound Apt1 then were detected by peroxidase-conjugated streptavidin and TMB substrate. […] constant, KD was calculated based on the absorbance values using the one-site binding model for non-linear regression in GraphPad.
The major epitope in CD44 protein that is recognized by the CD44-Apt1 was next determined. CD44 protein consists of an extracellular domain, a transmembrane helical domain, and an intracellular signaling transmission domain (FIG. 1H). The extracellular domain contains a hyaluronic acid binding domain (HABD) at its distal N-terminus and a glycosylation-site enriched variable region, the length of which are vary in different splice variants. Titration sandwich enzyme-linked immunosorbent assay (ELISA) was employed to map the epitope for CD44-Apt1. Antibody targeting the C-terminus of CD44 proteins that is the intracellular signaling domain was immobilized on a polystyrene support. Sites without antibody were blocked using bovine serum albumin. […] The amount of biotin-CD44-Apt1 bound to the captured proteins were evaluated using streptavidin conjugated horseradish peroxidase (HRP) and TMB substrate.

Chain of CD44 hyaluronic acid binding domain (HABD) (P16070 21-178, one chain of several): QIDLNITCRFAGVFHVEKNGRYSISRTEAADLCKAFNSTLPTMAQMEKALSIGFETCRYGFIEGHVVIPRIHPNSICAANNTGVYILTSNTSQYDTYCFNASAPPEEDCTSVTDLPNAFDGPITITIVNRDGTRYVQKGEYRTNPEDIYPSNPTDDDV

B1: CD44-Apt1 (biotin) (ssDNA)
DNA: ATCCAGAGTGACGCAGCATCGCAACGATTAGTATGCACCCACCGTATAGGTTGGTCTCTGGACACGGTGGCTTAGT
Consider B1, for which the Kd is 2360 nM.
